Results as given in patent US20250382602.
Residue numbers refer to the chain shown, from its start.

Experiments:
Settings in all cases: nanopore translocation, FLO-MIN112; background mutations not given
[1] = molecular target: T1, Dda 1993 354A 354A (Enterobacteria phage T4) (UniProt P32270)
T1 sequence: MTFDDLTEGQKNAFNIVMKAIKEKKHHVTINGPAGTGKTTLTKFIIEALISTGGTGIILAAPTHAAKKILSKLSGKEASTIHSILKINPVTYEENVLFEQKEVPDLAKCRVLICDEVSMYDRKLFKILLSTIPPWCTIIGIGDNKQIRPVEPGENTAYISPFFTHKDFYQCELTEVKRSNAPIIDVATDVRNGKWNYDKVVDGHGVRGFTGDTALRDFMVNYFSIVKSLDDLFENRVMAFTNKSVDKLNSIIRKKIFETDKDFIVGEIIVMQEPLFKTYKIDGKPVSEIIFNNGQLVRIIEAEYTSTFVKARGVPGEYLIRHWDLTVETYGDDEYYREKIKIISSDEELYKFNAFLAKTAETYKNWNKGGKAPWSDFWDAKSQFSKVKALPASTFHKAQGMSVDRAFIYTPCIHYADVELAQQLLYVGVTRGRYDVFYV

[2] = molecular target: T2, Dda 1993 K358F K358F (Enterobacteria phage T4) (UniProt P32270)
T2 sequence: T1 sequence with A354L, K358F

[3] = molecular target: T3, Dda 1993 351I 351I (Enterobacteria phage T4) (UniProt P32270)
T3 sequence: T1 sequence with K351I, A354L

[4] = molecular target: T4, Dda 1993 351Q 351Q (Enterobacteria phage T4) (UniProt P32270)
T4 sequence: T1 sequence with K351Q, A354L

[5] = molecular target: T5, Dda 1993 354Q 354Q (Enterobacteria phage T4) (UniProt P32270)
T5 sequence: T1 sequence with A354Q

[6] = molecular target: T6, Dda 1993 361I 361I (Enterobacteria phage T4) (UniProt P32270)
T6 sequence: T1 sequence with A354L, E361I

## barcoded 3.6 kb DNA analyte ligated to sequencing Y adaptor
[1]
  activity (bps speed delta vs control): 11.3
[2]
  activity (bps speed delta vs control): -10.9
[3]
  activity (bps speed delta vs control): -9.76
[4]
  activity (bps speed delta vs control): -5.61
[5]
  activity (bps speed delta vs control): 0.09
[6]
  activity (bps speed delta vs control): 21.6
